Measurements: patent publication US20120301477A1

Biological target: CCR9 (chemokine (C-C motif) receptor 9) (human) (UniProt P51686)
Assay: cell-based or functional assay

Chain of UniProt P51686 (P51686 whole entry): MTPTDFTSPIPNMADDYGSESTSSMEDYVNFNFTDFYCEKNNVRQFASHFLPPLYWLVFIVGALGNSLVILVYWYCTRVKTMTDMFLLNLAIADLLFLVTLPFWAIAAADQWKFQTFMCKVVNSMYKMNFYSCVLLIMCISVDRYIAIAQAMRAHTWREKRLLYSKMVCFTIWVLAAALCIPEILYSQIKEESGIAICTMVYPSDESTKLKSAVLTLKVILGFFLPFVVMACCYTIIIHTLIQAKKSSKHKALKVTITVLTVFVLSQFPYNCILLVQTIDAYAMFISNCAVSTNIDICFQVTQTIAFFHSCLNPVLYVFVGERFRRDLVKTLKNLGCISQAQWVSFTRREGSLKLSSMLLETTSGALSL

- impairment of migratory response to CCL25 after CCR9 siRNA, melanoma line ML: 76%
- impairment of migratory response to CCL25 after CCR9 siRNA, melanoma line MP: 63%
Substance: Human recombinant CCL25 (from UniProt O15444 24-150) (ligand)
